Columns and labels:
Assay in all cases: holdup assay
Parameters in all cases: key: below the threshold = too weak to quantify, mostly under pKd 3.1 to 4
DLG3_1, Q92796 = target: T1, DLG3_1, Q92796
T1 sequence (Q92796 125-227, limits assumed, looked up): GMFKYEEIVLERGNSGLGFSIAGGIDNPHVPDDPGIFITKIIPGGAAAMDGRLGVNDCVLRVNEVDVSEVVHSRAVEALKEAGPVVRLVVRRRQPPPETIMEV

DLG4_2, P78352 = target: DLG4_2, P78352
DLG4_3, P78352 = target: DLG4_3, P78352
FRMPD1, Q5SYB0 = target: T2, FRMPD1, Q5SYB0
T2 sequence (Q5SYB0 52-145, limits assumed, looked up): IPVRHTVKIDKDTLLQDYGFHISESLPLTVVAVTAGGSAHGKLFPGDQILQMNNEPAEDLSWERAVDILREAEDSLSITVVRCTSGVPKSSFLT

FRMPD2_1, Q68DX3 = target: FRMPD2_1, Q68DX3
Sequence of FRMPD2_1, Q68DX3 (Q68DX3 770-861): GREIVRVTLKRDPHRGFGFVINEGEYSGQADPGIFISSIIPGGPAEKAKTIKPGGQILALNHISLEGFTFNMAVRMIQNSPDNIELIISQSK

GRIP2_3, Q9C0E4 = target: GRIP2_3, Q9C0E4
Sequence of GRIP2_3, Q9C0E4 (Q9C0E4 238-339): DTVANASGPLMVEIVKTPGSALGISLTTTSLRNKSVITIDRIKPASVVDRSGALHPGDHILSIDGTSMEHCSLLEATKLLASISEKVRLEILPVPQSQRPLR

HTRA1, Q92743 = target: HTRA1, Q92743
Sequence of HTRA1, Q92743 (Q92743 360-477): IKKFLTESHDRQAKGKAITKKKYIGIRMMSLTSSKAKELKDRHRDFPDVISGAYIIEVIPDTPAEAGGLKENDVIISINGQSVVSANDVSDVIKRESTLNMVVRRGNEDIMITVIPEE

HTRA2, O43464 = target: HTRA2, O43464
Sequence of HTRA2, O43464 (O43464 355-458): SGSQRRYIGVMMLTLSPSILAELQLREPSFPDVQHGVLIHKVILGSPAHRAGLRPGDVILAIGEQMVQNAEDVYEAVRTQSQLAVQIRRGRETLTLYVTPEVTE

IL16_1, Q14005 = target: IL16_1, Q14005
Sequence of IL16_1, Q14005 (Q14005 210-306): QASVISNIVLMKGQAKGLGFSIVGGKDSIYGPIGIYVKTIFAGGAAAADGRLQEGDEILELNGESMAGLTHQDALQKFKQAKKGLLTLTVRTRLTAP

IL16_3, Q14005 = target: IL16_3, Q14005
Sequence of IL16_3, Q14005 (Q14005 1107-1207): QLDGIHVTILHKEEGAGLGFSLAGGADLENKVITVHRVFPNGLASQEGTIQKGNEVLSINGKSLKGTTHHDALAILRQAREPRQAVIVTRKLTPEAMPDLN

IL16_4, Q14005 = target: IL16_4, Q14005
Sequence of IL16_4, Q14005 (Q14005 1229-1329): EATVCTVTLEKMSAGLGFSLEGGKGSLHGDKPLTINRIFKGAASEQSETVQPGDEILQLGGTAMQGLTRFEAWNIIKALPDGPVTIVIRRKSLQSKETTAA

Inadl_4, Q8NI35 = target: Inadl_4, Q8NI35
Sequence of Inadl_4, Q8NI35 (Q8NI35 547-651): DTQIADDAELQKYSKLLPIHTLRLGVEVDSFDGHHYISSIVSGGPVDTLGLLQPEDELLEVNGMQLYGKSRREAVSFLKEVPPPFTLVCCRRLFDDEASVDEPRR

Inadl_8, Q8NI35 = target: Inadl_8, Q8NI35
Sequence of Inadl_8, Q8NI35 (Q8NI35 1425-1530): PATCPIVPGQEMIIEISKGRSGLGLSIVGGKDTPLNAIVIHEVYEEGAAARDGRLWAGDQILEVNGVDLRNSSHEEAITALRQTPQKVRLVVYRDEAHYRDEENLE

LIMK2, P53671 = target: LIMK2, P53671
Sequence of LIMK2, P53671 (P53671 143-248): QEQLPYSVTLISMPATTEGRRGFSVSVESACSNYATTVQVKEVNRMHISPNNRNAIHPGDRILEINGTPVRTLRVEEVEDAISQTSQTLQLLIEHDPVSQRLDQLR

LIN7B, Q9HAP6 = target: T3, LIN7B, Q9HAP6
T3 sequence (Q9HAP6 88-185, limits assumed, looked up): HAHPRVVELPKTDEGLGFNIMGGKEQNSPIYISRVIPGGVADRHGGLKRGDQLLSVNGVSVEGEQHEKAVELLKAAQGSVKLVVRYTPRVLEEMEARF

LNX2_2, Q8N448 = target: T4, LNX2_2, Q8N448
T4 sequence (Q8N448 334-432, limits assumed, looked up): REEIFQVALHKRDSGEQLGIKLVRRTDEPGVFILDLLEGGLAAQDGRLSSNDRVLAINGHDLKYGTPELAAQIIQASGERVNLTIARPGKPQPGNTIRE

MPP2, Q14168 = target: T5, MPP2, Q14168
T5 sequence (Q14168 180-250, limits assumed, looked up): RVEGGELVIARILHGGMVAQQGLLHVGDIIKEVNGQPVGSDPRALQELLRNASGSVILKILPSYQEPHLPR

NHERF4_1, Q86UT5-2 = target: NHERF4_1, Q86UT5-2
Sequence of NHERF4_1, Q86UT5-2 (Q86UT5 other isoform, or with tags, fused parts or gaps): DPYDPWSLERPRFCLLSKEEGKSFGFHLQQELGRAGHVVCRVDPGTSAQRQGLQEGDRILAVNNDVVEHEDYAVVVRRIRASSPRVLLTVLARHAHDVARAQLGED

PARD3_3, Q8TEW0 = target: PARD3_3, Q8TEW0
Sequence of PARD3_3, Q8TEW0 (Q8TEW0 582-685): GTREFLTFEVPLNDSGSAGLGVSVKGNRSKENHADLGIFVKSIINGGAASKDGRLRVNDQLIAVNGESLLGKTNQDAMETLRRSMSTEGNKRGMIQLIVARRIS

PCLO, Q9Y6V0 = target: T6, PCLO, Q9Y6V0
T6 sequence (Q9Y6V0 4491-4600, limits assumed, looked up): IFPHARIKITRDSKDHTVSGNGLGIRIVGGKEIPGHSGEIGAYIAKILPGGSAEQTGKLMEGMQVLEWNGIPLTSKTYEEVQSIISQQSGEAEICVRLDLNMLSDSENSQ

PDLIM1, O00151 = target: PDLIM1, O00151
Sequence of PDLIM1, O00151 (O00151 1-87): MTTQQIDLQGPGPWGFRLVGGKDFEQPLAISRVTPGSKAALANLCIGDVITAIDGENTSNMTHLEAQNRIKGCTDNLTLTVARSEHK

PDZRN3_1, Q9UPQ7 = target: T7, PDZRN3_1, Q9UPQ7
T7 sequence (Q9UPQ7 244-349, limits assumed, looked up): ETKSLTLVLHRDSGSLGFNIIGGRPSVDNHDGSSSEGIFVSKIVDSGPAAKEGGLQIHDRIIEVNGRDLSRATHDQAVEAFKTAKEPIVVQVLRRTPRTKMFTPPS

RHPN1, Q8TCX5 = target: T8, RHPN1, Q8TCX5
T8 sequence (Q8TCX5 508-602, limits assumed, looked up): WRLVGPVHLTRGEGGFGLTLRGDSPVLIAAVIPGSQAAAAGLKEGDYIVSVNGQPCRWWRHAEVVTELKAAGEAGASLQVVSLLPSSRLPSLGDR

SNTA1, Q13424 = target: T9, SNTA1, Q13424
T9 sequence (Q13424 82-180, limits assumed, looked up): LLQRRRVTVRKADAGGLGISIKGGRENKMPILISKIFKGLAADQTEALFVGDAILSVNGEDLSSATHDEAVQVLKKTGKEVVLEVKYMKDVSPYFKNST

SNTG2, Q9NY99 = target: T10, SNTG2, Q9NY99
T10 sequence (Q9NY99 68-166, limits assumed, looked up): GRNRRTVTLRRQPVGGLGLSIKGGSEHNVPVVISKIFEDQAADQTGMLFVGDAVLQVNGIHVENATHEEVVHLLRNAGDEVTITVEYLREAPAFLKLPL

SNX27, Q96L92 = target: SNX27, Q96L92
TX1BP3, O14907 = target: T11, TX1BP3, O14907
T11 sequence (O14907 10-122, limits assumed, looked up): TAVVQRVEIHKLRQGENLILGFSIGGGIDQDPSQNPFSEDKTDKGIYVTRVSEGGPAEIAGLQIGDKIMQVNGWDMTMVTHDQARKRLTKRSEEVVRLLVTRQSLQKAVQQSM

[1] = plain residues with an end cap or a label only (N-terminal biotin on a linker: ado-ado)
[2] = modified: acetyl on K at position -1 from the C-terminal residue

Measured: pKd

Sequence of DLG4_2, P78352 (P78352 155-259): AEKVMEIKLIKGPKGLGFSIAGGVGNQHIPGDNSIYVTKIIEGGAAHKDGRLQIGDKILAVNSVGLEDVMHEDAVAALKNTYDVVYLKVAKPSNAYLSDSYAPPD
Sequence of DLG4_3, P78352 (P78352 306-403): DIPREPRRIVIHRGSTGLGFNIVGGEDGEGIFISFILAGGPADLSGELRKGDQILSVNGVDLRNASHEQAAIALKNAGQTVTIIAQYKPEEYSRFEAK

B1: GLA, P06280 (peptide)
chain: TMQMSLKDLL
3.69: IL16_4, Q14005; [1]
3.65: LIN7B, Q9HAP6; [1]
3.55: DLG4_3, P78352; [1]
below the threshold: FRMPD1, Q5SYB0; [1] | FRMPD2_1, Q68DX3; [1] | GRIP2_3, Q9C0E4; [1] | HTRA2, O43464; [1] | IL16_1, Q14005; [1] | Inadl_4, Q8NI35; [1] | Inadl_8, Q8NI35; [1] | LIMK2, P53671; [1] | LNX2_2, Q8N448; [1] | MPP2, Q14168; [1] | PCLO, Q9Y6V0; [1] | PDLIM1, O00151; [1] | SNTA1, Q13424; [1] | SNTG2, Q9NY99; [1] | SNX27, Q96L92; [1] | TX1BP3, O14907; [1]
3.54: PARD3_3, Q8TEW0; [1]
3.64: DLG4_2, P78352; [1]
3.74: HTRA1, Q92743; [1]
3.5: IL16_3, Q14005; [1]
3.49: PDZRN3_1, Q9UPQ7; [1]
3.56: DLG3_1, Q92796; [1]
3.79: RHPN1, Q8TCX5; [1]
3.99: NHERF4_1, Q86UT5-2; [1]

B2: PTEN_Ac, P60484 (peptide)
chain: DEDQHTQITKV
below the threshold: DLG3_1, Q92796; [2] | DLG4_3, P78352; [2] | FRMPD1, Q5SYB0; [2] | FRMPD2_1, Q68DX3; [2] | GRIP2_3, Q9C0E4; [2] | HTRA2, O43464; [2] | IL16_3, Q14005; [2] | IL16_4, Q14005; [2] | Inadl_4, Q8NI35; [2] | LIMK2, P53671; [2] | MPP2, Q14168; [2] | NHERF4_1, Q86UT5-2; [2] | PCLO, Q9Y6V0; [2] | PDLIM1, O00151; [2] | PDZRN3_1, Q9UPQ7; [2]
3.74: TX1BP3, O14907; [2]
4.65: RHPN1, Q8TCX5; [2]
3.57: LIN7B, Q9HAP6; [2]
4.82: Inadl_8, Q8NI35; [2]
5.03: HTRA1, Q92743; [2] | LNX2_2, Q8N448; [2]
5.32: SNX27, Q96L92; [2]
3.78: SNTG2, Q9NY99; [2]
4.71: SNTA1, Q13424; [2]
3.97: PARD3_3, Q8TEW0; [2]
3.84: IL16_1, Q14005; [2]
4.58: DLG4_2, P78352; [2]

B3: ADGRE5, P48960 (peptide)
chain: RALRASESGI
3.62: LIN7B, Q9HAP6; [1]
below the threshold: DLG3_1, Q92796; [1] | DLG4_2, P78352; [1] | DLG4_3, P78352; [1] | FRMPD1, Q5SYB0; [1] | FRMPD2_1, Q68DX3; [1] | GRIP2_3, Q9C0E4; [1] | HTRA1, Q92743; [1] | HTRA2, O43464; [1] | IL16_1, Q14005; [1] | IL16_3, Q14005; [1] | IL16_4, Q14005; [1] | Inadl_4, Q8NI35; [1] | Inadl_8, Q8NI35; [1] | LIMK2, P53671; [1] | LNX2_2, Q8N448; [1] | MPP2, Q14168; [1] | NHERF4_1, Q86UT5-2; [1] | PARD3_3, Q8TEW0; [1] | PCLO, Q9Y6V0; [1] | PDLIM1, O00151; [1] | PDZRN3_1, Q9UPQ7; [1] | RHPN1, Q8TCX5; [1] | SNTA1, Q13424; [1] | SNTG2, Q9NY99; [1] | SNX27, Q96L92; [1] | TX1BP3, O14907; [1]

B4: GRIP1, Q9Y3R0 (peptide)
chain: LETREPTNTL
3.5: HTRA1, Q92743; [1]
below the threshold: DLG3_1, Q92796; [1] | DLG4_2, P78352; [1] | DLG4_3, P78352; [1] | FRMPD1, Q5SYB0; [1] | FRMPD2_1, Q68DX3; [1] | GRIP2_3, Q9C0E4; [1] | HTRA2, O43464; [1] | IL16_1, Q14005; [1] | IL16_3, Q14005; [1] | IL16_4, Q14005; [1] | Inadl_4, Q8NI35; [1] | Inadl_8, Q8NI35; [1] | LIMK2, P53671; [1] | LIN7B, Q9HAP6; [1] | LNX2_2, Q8N448; [1] | MPP2, Q14168; [1] | NHERF4_1, Q86UT5-2; [1] | PARD3_3, Q8TEW0; [1] | PCLO, Q9Y6V0; [1] | PDLIM1, O00151; [1] | PDZRN3_1, Q9UPQ7; [1] | RHPN1, Q8TCX5; [1] | SNTA1, Q13424; [1] | SNTG2, Q9NY99; [1] | SNX27, Q96L92; [1] | TX1BP3, O14907; [1]

Reference: paper PMC9482650, “Quantitative fragmentomics allow affinity mapping of interactomes” (Nature Communications, 2022)
